This test deals with mouse hemoglobin (mouse) (UniProt P01942). Kind of test: BLI.

pKd: −log10 of the molar value.

The substance “recombinant IsdB (from UniProt A6QG30 41-613) (receptor)” had a pKd of 6.01.

Values taken from paper PMC3032424.
